Source: PMC8442553 (Science (New York, N.Y.), 2019)

T1: Sth1 (yeast, UniProt P32597 1-1359)
T1 sequence: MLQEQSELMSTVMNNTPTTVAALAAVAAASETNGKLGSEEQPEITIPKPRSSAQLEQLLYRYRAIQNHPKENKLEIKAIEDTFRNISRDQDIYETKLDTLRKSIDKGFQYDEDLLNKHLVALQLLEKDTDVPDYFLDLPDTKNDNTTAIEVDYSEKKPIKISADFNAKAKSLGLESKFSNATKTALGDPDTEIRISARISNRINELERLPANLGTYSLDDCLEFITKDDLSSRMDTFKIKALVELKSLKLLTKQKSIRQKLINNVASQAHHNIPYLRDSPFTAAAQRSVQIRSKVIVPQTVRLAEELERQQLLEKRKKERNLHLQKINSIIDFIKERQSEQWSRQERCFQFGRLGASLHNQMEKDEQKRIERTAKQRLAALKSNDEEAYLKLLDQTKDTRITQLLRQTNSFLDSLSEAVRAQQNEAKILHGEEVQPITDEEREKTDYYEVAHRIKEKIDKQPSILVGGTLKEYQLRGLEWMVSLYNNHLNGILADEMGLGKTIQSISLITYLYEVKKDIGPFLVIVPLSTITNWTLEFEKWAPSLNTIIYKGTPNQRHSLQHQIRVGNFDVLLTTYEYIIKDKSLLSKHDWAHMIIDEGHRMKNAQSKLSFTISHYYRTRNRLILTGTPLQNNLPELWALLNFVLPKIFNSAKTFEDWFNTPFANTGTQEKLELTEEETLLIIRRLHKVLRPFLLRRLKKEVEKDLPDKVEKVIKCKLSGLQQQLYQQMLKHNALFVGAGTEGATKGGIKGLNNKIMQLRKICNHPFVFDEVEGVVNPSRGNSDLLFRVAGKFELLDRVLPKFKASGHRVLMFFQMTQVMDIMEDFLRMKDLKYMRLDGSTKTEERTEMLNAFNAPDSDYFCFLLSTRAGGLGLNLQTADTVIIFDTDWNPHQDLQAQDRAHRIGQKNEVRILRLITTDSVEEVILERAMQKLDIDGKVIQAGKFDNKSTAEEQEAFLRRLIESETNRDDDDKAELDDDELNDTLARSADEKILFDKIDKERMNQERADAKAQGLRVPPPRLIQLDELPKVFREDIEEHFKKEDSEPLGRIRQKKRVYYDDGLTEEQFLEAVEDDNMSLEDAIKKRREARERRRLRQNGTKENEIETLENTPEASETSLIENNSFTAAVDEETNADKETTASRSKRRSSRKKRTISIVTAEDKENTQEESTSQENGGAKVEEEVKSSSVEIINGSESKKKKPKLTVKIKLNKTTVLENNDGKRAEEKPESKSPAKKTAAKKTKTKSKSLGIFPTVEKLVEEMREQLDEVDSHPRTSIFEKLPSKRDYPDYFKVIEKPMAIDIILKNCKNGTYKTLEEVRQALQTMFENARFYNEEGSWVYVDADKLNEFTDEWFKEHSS

T2: Rsc8 (yeast, UniProt P43609 1-557)
T2 sequence: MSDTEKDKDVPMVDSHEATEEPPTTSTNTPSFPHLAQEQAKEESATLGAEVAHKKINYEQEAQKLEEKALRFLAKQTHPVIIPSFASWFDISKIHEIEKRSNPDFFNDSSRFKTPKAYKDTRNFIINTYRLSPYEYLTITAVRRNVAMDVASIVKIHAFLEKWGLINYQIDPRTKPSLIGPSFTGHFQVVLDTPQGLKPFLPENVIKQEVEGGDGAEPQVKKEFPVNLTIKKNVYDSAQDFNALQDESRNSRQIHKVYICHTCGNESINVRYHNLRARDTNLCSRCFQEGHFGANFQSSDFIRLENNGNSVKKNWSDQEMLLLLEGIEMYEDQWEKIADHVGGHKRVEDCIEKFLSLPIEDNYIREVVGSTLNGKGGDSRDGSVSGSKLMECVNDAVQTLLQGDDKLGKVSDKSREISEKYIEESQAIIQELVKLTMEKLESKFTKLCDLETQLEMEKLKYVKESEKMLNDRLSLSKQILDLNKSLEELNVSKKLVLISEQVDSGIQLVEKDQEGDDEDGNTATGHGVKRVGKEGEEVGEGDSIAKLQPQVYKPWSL

T3: Rsc3 (yeast, UniProt Q06639 1-885)
T3 sequence: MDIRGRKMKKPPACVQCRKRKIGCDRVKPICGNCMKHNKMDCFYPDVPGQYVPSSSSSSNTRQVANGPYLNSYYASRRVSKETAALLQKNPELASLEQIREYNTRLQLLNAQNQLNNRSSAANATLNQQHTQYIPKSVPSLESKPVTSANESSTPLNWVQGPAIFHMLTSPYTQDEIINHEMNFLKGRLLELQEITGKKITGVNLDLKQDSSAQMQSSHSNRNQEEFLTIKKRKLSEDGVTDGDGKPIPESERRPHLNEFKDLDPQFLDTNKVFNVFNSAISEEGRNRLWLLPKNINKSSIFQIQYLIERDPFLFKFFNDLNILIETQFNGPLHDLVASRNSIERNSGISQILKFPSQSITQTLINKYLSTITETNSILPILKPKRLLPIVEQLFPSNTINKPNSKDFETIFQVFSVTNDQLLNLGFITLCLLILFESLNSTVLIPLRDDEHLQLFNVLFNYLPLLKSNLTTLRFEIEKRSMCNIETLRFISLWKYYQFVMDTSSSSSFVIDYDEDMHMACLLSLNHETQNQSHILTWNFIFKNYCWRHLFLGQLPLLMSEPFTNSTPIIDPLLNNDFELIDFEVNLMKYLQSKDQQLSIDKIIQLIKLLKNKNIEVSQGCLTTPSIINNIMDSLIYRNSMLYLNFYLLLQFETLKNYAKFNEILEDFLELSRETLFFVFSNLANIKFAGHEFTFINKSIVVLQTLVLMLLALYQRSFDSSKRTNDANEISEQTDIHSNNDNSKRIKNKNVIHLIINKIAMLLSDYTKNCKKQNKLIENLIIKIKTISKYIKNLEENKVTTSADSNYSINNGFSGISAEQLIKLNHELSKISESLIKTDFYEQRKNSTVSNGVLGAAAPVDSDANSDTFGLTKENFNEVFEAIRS

B1: Rtt102 (natural protein, yeast)
chain: MDPQTLITKANKVSYYGNPTSKESWRYDWYQPSKVSSNVQQPQQQLGDMENNLEKYPFRYKTWLRNQEDEKNLQRESCEDILDLKEFDRRILKKSLMTSHTKGDTSKATGAPSANQGDEALSVDDIRGAVGNSEAIPGLSAGVNNDNTKESKDVKMN
B2: Rsc58 (natural protein, yeast)
chain: MTESVGGNKLVDFLVNVQSILNAASVKCHVVDESFPAKFFEKNPDKIYESYCKFIKNRSNSEGLIRNEDKLVLTTINKRFENGEYEPIQGGFYKLYHDIKLVCTILIHFYPQGTRNYQLVDKFYKFSSELLLRECCRIGIALTQTNNIKSRSGKLLSGNEMDEYDDDDATELDKIISYDFIKISMNYTVPISQTYQIRTKDMDLFSSIISKSNLDKRPHELPNTNFKINNVLPQTDIENEAPRLGFVGANTSNIPDPTLPPTEMMTRFLHPNWYALPTTVWLKYGNYNSWAPSFNENGTVVDSTTRGLIWLERIGYMDLYEKNEKKVKQEELLNTNEEGINRKQNDENNKNVDGKSNGVQDDGGDNDNDATIASANSESTENKEQFIIKLQNLYNWTPSNYIGDDEIENFRNGTPDKLVSDSLLKLKRLRKERILNKVLKPTTEERELYFKVKRILKEVILAKKVSKVPINNVRAFPVLQTNYNGSIPVVRAQPGRKRKHKK
B3: Htl1 (natural protein, yeast)
chain: MSQNNTISSMNPERAYNNVTLKNLTAFQLLSQRENICELLNLVESTERHNSIINPERQRMSLEEMKKMLDALKNERKK
B4: Rsc30 (natural protein, yeast)
chain: MMDMQVRKVRKPPACTQCRKRKIGCDRAKPICGNCVKYNKPDCFYPDGPGKMVAVPSASGMSTHGNGQGSNHFSQGNGVNQKNVMIQTQYPIMQTSIEAFNFSFNPSVDTAMQWTKAASYQNNNTNNNTAPRQNSSTVSSNVHGNTIVRSDSPDVPSMDQIREYNTRLQLVNAQSFDYTDNPYSFNVGINQDSAVFDLMTSPFTQEEVLIKEIDFLKNKLLDLQSLQLKSLKEKSNLNADNTTANKINKTGENSKKGKVDGKRAGFDHQTSRTSQSSQKYFTALTITDVQSLVQVKPLKDTPNYLFTKNFIIFRDHYLFKFYNILHDICHINQFKVSPPNNKNHQQYMEVCKVNFPPKAIIIETLNSESLNNLNIEEFLPIFDKTLLLEFVHNSFPNGDTCPSFSTVDLPLSQLTKLGELTVLLLLLNDSMTLFNKQAINNHVSALMNNLRLIRSQITLINLEYYDQETIKFIAITKFYESLYMHDDHKSSLDEDLSCLLSFQIKDFKLFHFLKKMYYSRHSLLGQSSFMVPAAENLSPIPASIDTNDIPLIANDLKLLETQAKLINILQGVPFYLPVNLTKIESLLETLTMGVSNTVDLYFHDNEVRKEWKDTLNFINTIVYTNFFLFVQNESSLSMAVQHSSNNNKTSNSERCAKDLMKIISNMHIFYSITFNFIFPIKSIKSFSSGNNRFHSNGKEFLFANHFIEILQNFIAITFAIFQRCEVILYDEFYKNLSNEEINVQLLLIHDKILEILKKIEIIVSFLRDEMNSNGSFKSIKGFNKVLNLIKYMLRFSKKKQNFARNSDNNNVTDYSQSAKNKNVLLKFPVSELNRIYLKFKEISDFLMEREVVQRSIIIDKDLESDNLGITTANFNDFYDAFYN
B5: Arp9 (natural protein, yeast)
chain: MAPFRQDSILIIYPRSQTTLVQFGLNEETFTVPELEIPTQIYRTTRQDGSYTYHSTNKDNKAELIKPIQNGEIIDISAFTQFLRLIFVSILSDRANKNQDAFEAELSNIPLLLITHHSWSQSDLEIITQYVFESLEINNLIQLPASLAATYSMISLQNCCIIDVGTHHTDIIPIVDYAQLDHLVSSIPMGGQSINDSLKKLLPQWDDDQIESLKKSPIFEVLSDDAKKLSSFDFGNENEDEDEGTLNVAEIITSGRDTREVLEERERGQKVKNVKNSDLEFNTFWDEKGNEIKVGKQRFQGCNNLIKNISNRVGLTLDNIDDINKAKAVWENIIIVGGTTSISGFKEALLGQLLKDHLIIEPEEEKSKREEEAKSVLPAATKKKSKFMTNSTAFVPTIEYVQCPTVIKLAKYPDYFPEWKKSGYSEIIFLGAQIVSKQIFTHPKDTFYITREKYNMKGPAALWDVQF
B6: Arp7 (natural protein, yeast)
chain: MTLNRKCVVIHNGSHRTVAGFSNVELPQCIIPSSYIKRTDEGGEAEFIFGTYNMIDAAAEKRNGDEVYTLVDSQGLPYNWDALEMQWRYLYDTQLKVSPEELPLVITMPATNGKPDMAILERYYELAFDKLNVPVFQIVIEPLAIALSMGKSSAFVIDIGASGCNVTPIIDGIVVKNAVVRSKFGGDFLDFQVHERLAPLIKEENDMENMADEQKRSTDVWYEASTWIQQFKSTMLQVSEKDLFELERYYKEQADIYAKQQEQLKQMDQQLQYTALTGSPNNPLVQKKNFLFKPLNKTLTLDLKECYQFAEYLFKPQLISDKFSPEDGLGPLMAKSVKKAGASINSMKANTSTNPNGLGTSHINTNVGDNNSTASSSNISPEQVYSLLLTNVIITGSTSLIEGMEQRIIKELSIRFPQYKLTTFANQVMMDRKIQGWLGALTMANLPSWSLGKWYSKEDYETLKRDRKQSQATNATN
B7: Rsc7 (natural protein, yeast)
chain: MSDSEGGLASEVEHEKRSRSTSNRPNYAIDTEDLDIDENDENEDDDYREEEANEGVNEEEISDEEEQINKSGRNKRRHVDEEEDLSEDKGVTRSRNRSKFKKPVFPGIDDAEENLNPLKVVNEEYVLPDDPEGETKITADGDLLGGREFLVRTFTLTEKGNRKFMLATEPARIVGFRDSYLFFQTHPNLYKFILNQTQKNDLIDRGVLPYSYRNRQIALVTARGVFKEFGAKIIRGGKHITDDYYASELRTKGNVIEGKLAGDPIDKSARALETMMYPASENGINPAKNQVEFFEHRPHGHMSNSNIIASGSKLSSTNWLYQHSAACSRFNSDLFYDRVKVLLVDQQGLRDAYTNILHIPESTQSTTVLGWRRSKNDSPSDTSIVYETVIHDNDLNKPKTGLSEIPKEIYEDVVDEDVLRAITEQQNFEKCNEYI

Assays:
Assay in all cases: cryo-EM structure
Sth1 = target: T1, Sth1
Rsc8 = target: T2, Rsc8
Rsc3 = target: T3, Rsc3

Row | Binder | binding result (Sth1) | binding result (Rsc8) | binding result (Rsc3)
1 | B1 | binds | – | –
2 | B2 | binds | binds | –
3 | B3 | – | binds | –
4 | B4 | – | – | binds
5 | B5 | binds | – | –
6 | B6 | binds | – | –
7 | B7 | – | binds | –
